B2: Recombinant human CD206 (MRC1/CD206) (receptor, UniProt P22897 19-1383, looked up)
chain: LLDTRQFLIYNEDHKRCVDAVSPSAVQTAACNQDAESQKFRWVSESQIMSVAFKLCLGVPSKTDWVAITLYACDSKSEFQKWECKNDTLLGIKGEDLFFNYGNRQEKNIMLYKGSGLWSRWKIYGTTDNLCSRGYEAMYTLLGNANGATCAFPFKFENKWYADCTSAGRSDGWLWCGTTTDYDTDKLFGYCPLKFEGSESLWNKDPLTSVSYQINSKSALTWHQARKSCQQQNAELLSITEIHEQTYLTGLTSSLTSGLWIGLNSLSFNSGWQWSDRSPFRYLNWLPGSPSAEPGKSCVSLNPGKNAKWENLECVQKLGYICKKGNTTLNSFVIPSESDVPTHCPSQWWPYAGHCYKIHRDEKKIQRDALTTCRKEGGDLTSIHTIEELDFIISQLGYEPNDELWIGLNDIKIQMYFEWSDGTPVTFTKWLRGEPSHENNRQEDCVVMKGKDGYWADRGCEWPLGYICKMKSRSQGPEIVEVEKGCRKGWKKHHFYCYMIGHTLSTFAEANQTCNNENAYLTTIEDRYEQAFLTSFVGLRPEKYFWTGLSDIQTKGTFQWTIEEEVRFTHWNSDMPGRKPGCVAMRTGIAGGLWDVLKCDEKAKFVCKHWAEGVTHPPKPTTTPEPKCPEDWGASSRTSLCFKLYAKGKHEKKTWFESRDFCRALGGDLASINNKEEQQTIWRLITASGSYHKLFWLGLTYGSPSEGFTWSDGSPVSYENWAYGEPNNYQNVEYCGELKGDPTMSWNDINCEHLNNWICQIQKGQTPKPEPTPAPQDNPPVTEDGWVIYKDYQYYFSKEKETMDNARAFCKRNFGDLVSIQSESEKKFLWKYVNRNDAQSAYFIGLLISLDKKFAWMDGSKVDYVSWATGEPNFANEDENCVTMYSNSGFWNDINCGYPNAFICQRHNSSINATTVMPTMPSVPSGCKEGWNFYSNKCFKIFGFMEEERKNWQEARKACIGFGGNLVSIQNEKEQAFLTYHMKDSTFSAWTGLNDVNSEHTFLWTDGRGVHYTNWGKGYPGGRRSSLSYEDADCVVIIGGASNEAGKWMDDTCDSKRGYICQTRSDPSLTNPPATIQTDGFVKYGKSSYSLMRQKFQWHEAETYCKLHNSLIASILDPYSNAFAWLQMETSNERVWIALNSNLTDNQYTWTDKWRVRYTNWAADEPKLKSACVYLDLDGYWKTAHCNESFYFLCKRSDEIPATEPPQLPGRCPESDHTAWIPFHGHCYYIESSYTRNWGQASLECLRMGSSLVSIESAAESSFLSYRVEPLKSKTNFWIGLFRNVEGTWLWINNSPVSFVNWNTGDPSGERNDCVALHASSGFWSNIHCSSYKGYICKRPKIIDAKPTHELLTTKADTRKMDPSK
notes: Bought protein; also called recombinant MRC1/CD206; rMRC1/CD206

Series [1] concerns the target T1, Endogenous murine CD206 on M2-polarized bone marrow-derived macrophages (mouse, UniProt Q61830 20-1456).
T1 construct: whole, on cells; also called endogenous CD206 in murine macrophages; CD206 of M2 BMDMs
T1 sequence (looked up): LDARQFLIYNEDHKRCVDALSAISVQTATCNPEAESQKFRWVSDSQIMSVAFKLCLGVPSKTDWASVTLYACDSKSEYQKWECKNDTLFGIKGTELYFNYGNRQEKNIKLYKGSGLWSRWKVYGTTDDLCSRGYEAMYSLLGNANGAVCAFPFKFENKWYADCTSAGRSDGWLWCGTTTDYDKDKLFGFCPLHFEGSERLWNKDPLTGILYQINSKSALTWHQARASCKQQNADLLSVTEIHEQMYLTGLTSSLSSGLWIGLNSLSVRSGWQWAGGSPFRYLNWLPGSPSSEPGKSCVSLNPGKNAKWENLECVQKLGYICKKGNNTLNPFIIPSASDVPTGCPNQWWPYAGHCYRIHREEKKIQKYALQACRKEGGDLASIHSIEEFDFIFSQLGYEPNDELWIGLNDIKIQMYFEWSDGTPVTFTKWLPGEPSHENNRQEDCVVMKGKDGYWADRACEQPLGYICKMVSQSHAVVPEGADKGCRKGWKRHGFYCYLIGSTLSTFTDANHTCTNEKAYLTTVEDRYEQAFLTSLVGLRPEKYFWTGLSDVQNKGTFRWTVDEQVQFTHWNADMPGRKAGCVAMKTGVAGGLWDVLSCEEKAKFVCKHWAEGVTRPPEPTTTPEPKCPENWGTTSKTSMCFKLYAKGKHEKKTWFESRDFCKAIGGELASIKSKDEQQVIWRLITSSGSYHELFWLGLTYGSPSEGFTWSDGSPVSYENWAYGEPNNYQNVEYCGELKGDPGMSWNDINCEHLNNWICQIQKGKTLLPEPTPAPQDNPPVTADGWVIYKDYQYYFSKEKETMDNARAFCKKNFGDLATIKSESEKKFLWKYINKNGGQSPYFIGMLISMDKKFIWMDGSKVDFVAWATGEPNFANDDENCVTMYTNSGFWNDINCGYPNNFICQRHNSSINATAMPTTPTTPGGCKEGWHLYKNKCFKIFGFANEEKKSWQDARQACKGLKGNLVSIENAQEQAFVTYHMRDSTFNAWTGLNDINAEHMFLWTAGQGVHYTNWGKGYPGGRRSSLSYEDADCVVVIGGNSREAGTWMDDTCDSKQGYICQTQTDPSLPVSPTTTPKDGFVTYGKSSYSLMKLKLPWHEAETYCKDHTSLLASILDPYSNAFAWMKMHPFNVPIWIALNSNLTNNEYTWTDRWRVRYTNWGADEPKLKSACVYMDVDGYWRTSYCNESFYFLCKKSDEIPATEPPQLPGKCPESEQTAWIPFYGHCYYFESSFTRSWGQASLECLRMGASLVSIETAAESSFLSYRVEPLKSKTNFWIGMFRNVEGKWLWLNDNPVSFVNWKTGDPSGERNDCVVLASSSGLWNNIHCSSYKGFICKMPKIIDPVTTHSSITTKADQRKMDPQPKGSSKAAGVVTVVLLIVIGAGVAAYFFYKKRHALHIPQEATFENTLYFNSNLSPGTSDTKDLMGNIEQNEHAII
Description: cellular thermal shift assay (CETSA) on M2-polarized macrophages.
Description: The target engagement of the peptides in macrophages was assessed using the cellular thermal shift assay (CETSA) following the Jafari et al. protocol with minor modifications. […] After treatment, cells were collected by centrifugation for 5 min at 300×g and re-suspended in 600 μL DMEM. […] Samples were centrifuged at 20,000×g for 20 min at 4° C., and the supernatant was subsequently analyzed by western blot using 12-230 kDa Peggy Sue separation module (ProteinSimple, Cat #, SM-S001) and Peggy Sue instrument (Protein Simple) with following settings: electrophoresis 250 volts for 45 min; blocking, 23 min; primary antibody, 30 min; secondary antibody, 30 min. Quantitative analysis of CD206 level was performed using anti-CD206 antibody at 1:70 concentration multiplexed with anti-SOD1 antibody at 1:300 dilution, as internal control for normalization, and Compass software (ProteinSimple, San Jose, Calif.).

Series [2] concerns the target B2. In words: microscale thermophoresis, label-free, recombinant CD206. How it is done: Specifically, two-fold serial dilutions of the peptides were prepared in PBS and incubated with the same volume of 250 nM recombinant human and mouse CD206 in PBS. After a 5 min incubation at room temperature (RT), measurements were carried out in standard capillaries using a Monolith NT. Labelfree instrument (Nanotemper Technologies) with 40% LED excitation power, 40% IR-laser power, and laser on and off times of 30 s and 5 s, respectively. KD values were calculated by fitting the T-Jump signal of the thermograph using MOAffinity analysis software (Nanotemper Technologies).

Series [3] concerns the molecule itself. In words: small-angle X-ray scattering (SAXS), self-association.
Description: SAXS data was collected at the 12ID-B beamline of the Advanced Photon Source (APS), Argonne National Laboratory, Lemont, Ill. […] Concentration series measurements for CD206 in buffer containing 50 mM Hepes, 100 mM NaCl, 1 mM DTT were carried out to extrapolate the data to infinite dilution for removing the scattering contribution due to interparticle interactions (concentration effect). Thirty 2D-image frames were recorded for sample solution and their matching buffer using a flow cell, with the exposure time of 0.75-1 sec to minimize radiation damage and to yield optimal signal-to-noise ratio. The 2D images were reduced to 1D scattering profiles and averaged using the Matlab software package at the beamlines.
The buffer background subtraction and intensity extrapolation to infinite dilution were carried out using MatLab script developed by 12-ID-B beamline. The radius of gyration (Rg) was generated from Guinier plot in the range of qRg<1.3. For comparison, Rg was also calculated in real and reciprocal spaces using program GNOM (https://www.embl-hamburg.de/biosaxs/manuals/gnom.html). The pair-distance distribution function P(r) and maximum dimension (Dmax) were also calculated using GNOM. […] Based on the silico models of CD206 monomer derived from iTASSER, the fit of dimer of CD206 to SAXS experimental data were calculated using the program CORAL.

B1: RP-426 (peptide)
peptide: KARKAAKRAF
notes: Designed as a control to test the impact of hydrophobicity on activity
As for B1, in series [1], the binding result is “no binding (tested: 100 µM)”. In addition, the Kd in series [2] is 85 µM.
On to B2, for which, in series [3], the binding result was “binds”.

The record behind these values is patent US20220062373A1 (published 2022).
